Here are results for five molecules from US20220227882A1 (TRUSTEES OF TUFTS COLLEGE, published 2022).

The target of data set [1] is Full-length human ADAM8 on cells (HEK293-ADAM8 stable or transfected cells; also endogenous ADAM8 of breast cell lines and PDX tumors) (human) (UniProt P78325). Kind of data set: FACS, HEK293-ADAM8 cells, column 1 µg/ml, negative control. On the technique in general: Flow cytometry measures light scatter and fluorescence of single cells or particles in a stream.
Data set [2] has the same target. Kind of data set: FACS, HEK293-ADAM8 cells, column 10 µg/ml, negative control.
Data set [3] has the same target. Kind of data set: FACS, HEK293-ADAM8 cells, column 0.1 µg/ml, negative control.
For data set [4] the target is unchanged.
For data set [5], the target named is Recombinant human ADAM8 (rHuADAM8) ectodomain protein (aa 17-497), ACRO Biosystems AD8-H5223 (human) (UniProt P78325). Kind of data set: adhesion of α9β1 integrin CHO cells to coated rHuADAM8, antibody 20 µg/ml, vs isotype control IgG; mean ± S.D., n=3.
Data set [6] addresses T1, Recombinant human ADAM8 (rHuADAM8) ectodomain protein (aa 17-497), ACRO Biosystems AD8-H5223 (human, UniProt P78325 17-497).
T1 construct: Bought protein made in HEK293 cells; The protein clips off its own prodomain (aa 17-191); also called rhADAM8; immunogen
T1 sequence: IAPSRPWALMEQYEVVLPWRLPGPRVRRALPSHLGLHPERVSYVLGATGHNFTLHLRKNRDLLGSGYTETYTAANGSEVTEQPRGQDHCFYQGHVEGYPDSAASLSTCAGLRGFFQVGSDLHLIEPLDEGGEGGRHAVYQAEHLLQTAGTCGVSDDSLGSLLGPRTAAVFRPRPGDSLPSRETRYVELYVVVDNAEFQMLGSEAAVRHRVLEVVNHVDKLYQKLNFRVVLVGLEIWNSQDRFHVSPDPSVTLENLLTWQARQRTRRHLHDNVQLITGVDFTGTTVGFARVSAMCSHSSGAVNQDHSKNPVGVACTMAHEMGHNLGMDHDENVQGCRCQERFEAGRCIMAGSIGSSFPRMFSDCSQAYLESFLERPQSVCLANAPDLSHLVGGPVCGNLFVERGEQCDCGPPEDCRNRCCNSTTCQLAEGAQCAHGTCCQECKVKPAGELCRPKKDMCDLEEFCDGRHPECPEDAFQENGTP
Nature of the data set: ELISA on coated rHuADAM8, antibody 0 to 2.5 nM. (In general: ELISA stands for enzyme-linked immunosorbent assay.)

Data set [7] deals with Quenched fluorescent CD23 peptide (Biozyme, PEPDAB013m001).

Regarding mIgG (antibody), the MFI is 3.2 MFI in data set [1], 4 MFI in data set [2] and 3.3 MFI in data set [3].
In data set [4], “MAB1031 anti-ADAM8 antibody (R&D Systems)” showed a % inhibition of CD23 cleavage (MP activity), HEK293 cells co-expressing CD23 and ADAM8, antibody 20 µg/ml of 65.8 % inhibition; a % inhibition of transendothelial migration of MDA-MB-231 cells through HUVEC, antibody 20 µg/ml of 42.4 % inhibition. In addition, the % inhibition of α9β1 integrin binding to ADAM8 in data set [5] worked out at 63.4 % inhibition.

B1: chADP13-IgG1 (antibody, V domains shown)
VH: EVQLQQSGPEMVKPGTSVKISCKASGYTFTDYYINWVKQSHGKSLEWIGDISPNIGGATYNPKFKGKAILTVDKSARTAYMELRSLTSEDSAVYCCTRGGSSYPYFYAMDYWGQGTSVTVSS
VL: DIVMSQSPSSLAVSVGEKVTMSCKSSQSLLYSSNQKKYLAWYQQKPGQSPKLLIYWASTRESGVPDRFTGSGSGTDFTLTISSVKAEDLAVYYCQQFYSYPYTFGGGTKLEIKR
notes: Mouse ADP13 VL and VH joined to germline human IgG1 CL and CH; made in CHO cells; also called chimeric ADP13
Regarding B1, the Kd (commonly a measure of binding affinity in units of concentration) in data set [6] stood at 0.0795 nM.

B2: Recombinant human ADAM8 (rHuADAM8) ectodomain protein (aa 17-497), ACRO Biosystems AD8-H5223 (protein)
chain: T1 sequence
For B2, the “fluorescence released from a quenched CD23 peptide over 24 hr” value in data set [7] is “An increase in fluorescence was seen over time in samples with rHuADAM8, which was inhibited in the presence of the chelating agent EDTA”.

B3: chADP2-IgG1 (antibody, V domains shown)
VH: EVKLVESGGGLVQPGGSLSLSCAASGFSFPDYYMSWVRQPPGKALEWLGFIRDSANGYTTEYIASVKGRFTFSRDNSQSILYLQMNALRAEDSATYYCARYSRYYGMDYWGQGTSVTVSS
VL: SIVMTQTPKILLVSAGDRVTITCKASQTVNYDVAWYQQKPGQSPKPVIYFASNRYTGVPDRFTGSGFGTDFTFTISTVQAEDLAVYFCQQDYSAPWTFGGGTKLEIKR
notes: Mouse ADP2 VL and VH joined to germline human IgG1 CL and CH; made in CHO cells; also called chimeric ADP2
B3: the dissociation constant (Kd) in data set [6] turned out to be 0.0366 nM.
